Experimental findings from patent publication US8383602B2, “Use of TRIM72 as a target for muscle and heart enhancer” (Korea University Industrial & Academic Collaborative …, priority 2007, dated 2013) are described below.

Residues, ends and D or L forms follow the SMILES beside them. *: point of attachment. Cbz = O=C(OCc1ccccc1)*

Common to all, as to format: cell-based
In data set [1] the test system is TRIM72 promoter. The data set is described as follows: TRIM72 promoter-luciferase activity during muscle differentiation, pharmacological inhibitors. Conditions: FIG. 14A. The procedure: (§1) A. CEMI promoter-luciferase fused gene having E2 and E3 was expressed in C2C12 myoblasts for 24 hours and muscle differentiation into myotubes was induced for 24 hours. While inducing muscle differentiation, PI3K inhibitor (LY294002, 10 μM), mTOR inhibitor (rapamycin, 100 nM), GSK3β inhibitor (LiCl, 5 mM) and MAPK inhibitor (PD98059, 10 μM) were treated and luciferase activity was measured. B. CEMI promoter-luciferase fused gene having E2 and E3 and MyoD gene were expressed in C2C12 myoblasts for 24 hours. After treating with various agents for 24 hours, luciferase activity was measured. C. […] After inducing muscle differentiation into myotubes for 24 hours, luciferase activity was measured. […] After inducing differentiation for 24 hours, luciferase activity was measured.
(§2) IRS-1 constructs (full-length, 1-3729; PH-PTB domain, 1-900; Mid-region, 880-2608; Rear-region, 2581-3729) and TRIM72 cDNA constructs (full-length, 1-1431; ΔRING, 181-1431; coiled-coil, 367-1020; CCSPRY, 367-1431; SPRY, 687-1431; Δcoiled-coil) were generated by PCR using the primers described in Table 1 and cloned into pCMV-Tag2B vector and pCMV-3Tag4a vector (Stratagene), respectively. […] Luciferase activity in cell lysates was measured by using the luciferase assay system (Promega) in a Luminoskan Ascent (Thermo Labsystem). […]

The test system of data set [2] is IRS-1. The data set is described as follows: IRS-1 expression in 293 cells co-transfected with TRIM72. Conditions: IRS-1 and TRIM72 transfected, FIG. 11A. The procedure:
(§3) A. IRS-1 (6 μg) and TRIM72 (2 μg) were transfected into HEK 293 cells for 30 hours and expression of IRS-1 and TRIM72 was investigated after treating with the proteosomal degradation inhibitor MG132 for 10 hours. B. IRS-1 (3 μg) and TRIM72 at various concentrations (0, 0.5, 1, 2 μg) were transfected into 293 cells for 30 hours and expression of IRS-1 was investigated. C. HA-TRIM72 (or HA-TRIM72 C14A), Flag-IRS-1 and His-ubiquitin were transfected into 293 cells for 30 hours and MG132 was treated for 10 hours. Ubiquitination of IRS-1 was identified by immunoblotting using His after immunoprecipitation with Flag antibody. Red brace denotes ubiquitination of IRS-1.
as §2
(§4) Western blotting and immunostaining were performed as described in Kim, K. B. et al. Proteomics 6, 2444-53 (2006). […] The immunoprecipitates were analyzed by Western blotting.

Data set [3] concerns TRIM72 promoter. The data set is described as follows: MyoD-dependent TRIM72 promoter-luciferase activity in myoblasts, pharmacological inhibitors. As to conditions: agents treated 24 hours, FIG. 14B. The procedure:
as §1, §2

Another data set relates to M-Cadherin. Put plainly: M-Cadherin expression after TRIM72 overexpression or Si-RNA. As to conditions: FIGS. 12C-12E.
From the text: (§5) An adenoviral vector with TRIM72 was constructed using ViraPower™ Adenoviral Expression System (Invitrogen) under control of the cytomegalovirus (CMV). Full-length-TRIM72 ORF (open reading frame) was cloned into an entry vector pENTR (Invitrogen) using the restriction enzyme sites (SalI and NotI) and homologously recombined into a destination vector pAd/CMV/V5-DEST (Invitrogen) which has the adenoviral genome and CMV promotor. The cloned TRIM72-adenoviral genome was linearlized by cutting with PacI restriction enzyme and transfected into 293A cells using a transfection agent (GenePorter II). After 10-15 days of the transfection, the supernatant comprising adenovirus was re-transfected into 293A cells to obtain the amplified adenovirus. The obtained adenovirus supernatant was purified into adenovirus particles using cessium chlororide. C2C12 myoblasts grown in 6 well plates were infected by adenovirus with the dosage of 4×10^10 VP/ml.
(§6) SiRNA oligomer targeting TRIM72 was designed from Dharmacon. Target sequence of TRIM72 is 5′-[…]-3′. The cell cultures were transfected with control RNAi and TRIM72 specific siRNA using transfection reagent (TransIT®-TKO, Mirus), which was prepared according manufacturer's instruction. […]
as §4

The subject of data set [4] is C2C12 myoblasts. The data set is described as follows: Muscle differentiation (myogenesis) after TRIM72 overexpression by adenoviral vector or TRIM72 interference by SiRNA. On the procedure:
(§7) C2C12 cells were purchased from ATCC and grown in Dulbecco's modified Eagle's medium (DMEM) supplemented with 2% penicillin/streptomycin (WelGene) and 10% fetal bovine serum (WelGene) in a 5% CO2 incubator at 37° C. Confluent C2C12 myoblasts were differentiated into myotubes by incubation with DMEM supplemented with the same antibiotics and 2% horse serum. Every 48 hours, the myotubes were fed with fresh DMEM containing 2% horse serum. Male C57BL/Ksj mice were maintained on a controlled lighting schedule, with a 12-h dark period. Twenty-week-old mice were used in all of the experiments in this study.
as §5
SiRNA oligomer targeting TRIM72 was designed from Dharmacon. Target sequence of TRIM72 is 5′-[…]-3′. The cell cultures were transfected with control RNAi and TRIM72 specific siRNA using transfection reagent (TransIT®-TKO, Mirus), which was prepared according manufacturer's instruction. Transfected cells were then transferred to media containing 2% horse serum at least for 48 h.
Western blotting and immunostaining were performed as described in Kim, K. B. et al. Proteomics 6, 2444-53 (2006). For immunoprecipitation, cells were lysed in buffer containing 20 mM Tris-HCl pH 7.4, 137 mM NaCl, 1 mM MgCl2, 1 mM CaCl2, 20 mM NaF, 10 mM Na4P2O7, 1% NP-40, 1 mM Na3VO4, 1 mM PMSF and protease inhibitor cocktail (Roche). The whole cell lysates (600 μg protein) were incubated with specific antibodies for 90 min and then with 50 μl of Protein A-sepharose or G-agarose bead (50%) slurry for 1 h. The immunoprecipitates were analyzed by Western blotting.

The subject of the next data set is IRS-1 with PI3K. The data set is described as follows: Molecular association of IRS-1 with PI3K after IGF-I stimulation (immunoprecipitation). Conditions: FIG. 8.
From the text: as §5, §6, §4

Data set [5] concerns IRS-1. Put plainly: IRS-1 ubiquitination in 293 cells. As to conditions: TRIM72, IRS-1 and ubiquitin co-expressed in 293 cells, MG132 treated, FIG. 11C. On the procedure:
as §3
293T cells are transfected with pCMV-HA-TRIM72 (1 μg) or pCMV-HA-TRIM72 C14A (1 μg) and pCMV-Flag-IRS-1 (3 μg) and His-ubiquitin (3 μg) using Polyfect (Qiagen). Twenty-four hours after transfection, cells were treated with MG132 (5 μM) for 12 h. Cell lysates were immunoprecipitated with anti-Flag for 2 h. The immunoprecipitates were analyzed by Western blotting against anti-His antibody.

The subject of data set [6] is IRS-1. Put plainly: IGF-I-induced tyrosine phosphorylation of IRS-1 (immunoprecipitation). Conditions: IGF-I stimulation, FIG. 8.
From the text: as §5, §6, §4

The subject of data set [7] is C2C12 myoblasts. Put plainly: Muscle differentiation of C2C12 myoblasts transfected with wild type or mutant TRIM72 genes. As to conditions: genes expressed in C2C12 myoblasts, differentiation induced, FIG. 10B. On the procedure: as §7
as §2, with “respectively. Alternatively, TRIM72 and TRIM72 C14A were generated by PCR reaction using the primers described in Table 1 and cloned into pHM6-HA vector, pCMV-Tag2B or pHM6 vector (Roche).” for “respectively.”

The subject of the next data set is AKT. Put plainly: IGF-1-induced AKT phosphorylation after TRIM72 overexpression or knockdown. Conditions: myoblasts (overexpression) / myotubes (knockdown), FIG. 7A.
From the text: as §5, §6, §4

In another data set the test system is PI3K. Put plainly: IGF-1-induced PI3K activation (PI(3)K activity of anti-p85 immunoprecipitates). As to conditions: FIG. 7B.
From the text: as §5
SiRNA oligomer targeting TRIM72 was designed from Dharmacon. Target sequence of TRIM72 is 5′-[…]-3′. The cell cultures were transfected with control RNAi and TRIM72 specific siRNA using transfection reagent (TransIT®-TKO, Mirus), which was prepared according manufacturer's instruction. Transfected cells were then transferred to media containing 2% horse serum at least for 48 h. […]

In the next data set the test system is IGFR. The data set is described as follows: IGF-I-induced tyrosine phosphorylation of IGFR (immunoprecipitation). As to conditions: FIG. 8.
From the text: as §5, §6, §4

In the next data set the test system is ERK1/2. The data set is described as follows: IGF-1-induced ERK1/2 phosphorylation after TRIM72 overexpression or knockdown. Conditions: myoblasts (overexpression) / myotubes (knockdown), FIG. 7A.
From the text: as §5, §6, §4

`O=c1cc(N2CCOCC2)oc2c(-c3ccccc3)cccc12` [LY294002]: in the data set on TRIM72 promoter [1] (LY294002 10 μM), the “decrease of TRIM72 transcription in IGF-I induced muscle differentiation” value was found to be 4 times.
Consider `CC(C)C[C@@H](C=O)NC(=O)[C@H](CC(C)C)NC(=O)[C@H](CC(C)C)NC(=O)OCc1ccccc1` [MG132, reference compound] (Cbz-Leu-Leu-Leu-aldehyde), for which the “expression of IRS-1” value with IRS-1 [2] is given as “expressed normally”.
As for `[Cl-].[Li+]` [LiCl], in the data set with TRIM72 promoter [3], the “MyoD-dependent TRIM72 transcription in myoblasts” value is “not affected”. Moreover, in the data set on TRIM72 promoter [1] (rapamycin 100 nM, LiCl 5 mM), the “change of TRIM72 transcription in IGF-I induced muscle differentiation” value is listed as “no change”.

B1: TRIM72: TRIM72 protein (SEQ ID NO: 1 or 2) or its gene, overexpressed via adenoviral vector or plasmid; negative regulator of muscle differentiation (protein)
chain: MSAAPGLLHQELSCPLCLQLFDAPVTAECGHSFCRACLGRVAGEPAADGTVLCPCCQAPTRPQALSTNLQLARLVEGLAQVPQGHCEEHLDPLSIYCEQDRALVCGVCASLGSHRGHRLLPAAEAHARLKTQLPQQKLQLQEACMRKEKSVAVLEHQLVEVEETVRQFRGAVGEQLGKMRVFLAALEGSLDCEAERVRGEAGVALRRELGSLNSYLEQLRQMEKVLEEVADKPQTEFLMKYCLVTSRLQKILAESPPPARLDIQLPIISDDFKFQVWRKMFRALMPALEELTFDPSSAHPSLVVSSSGRRVECSEQKAPPAGEDPRQFDKAVAVVAHQQLSEGEHYWEVDVGDKPRWALGVIAAEAPRRGRLHAVPSQGLWLLGLREGKILEAHVEAKEPRALRSPERRPTRIGLYLSFGDGVLSFYDASDADALVPLFAFHERLPRPVYPFFDVCWHDKGKNAQPLLLVGPEGAEA
modifications: left off: small tags and cut ends
notes: negative regulator of muscle differentiation
Regarding B1, the “expression of M-Cadherin” value in the data set with M-Cadherin is listed as “decreased”. The “expression of IRS-1” value in the data set with IRS-1 [2] was “decreased”. For the same molecule, in the data set with C2C12 myoblasts [4] (C2C12, FIG. 6A (H&E staining)), the myogenesis entry is listed as “prevented”. Also, in the data set with C2C12 myoblasts [4] (C2C12, FIGS. 6C and 6D), the “myogenesis as determined by expression level of myogenesis marker proteins (myogenin, caveolin-3 and MyHC) and nucleus number per myotubes” value is given as “completely prevented”. Also, the “amount of MyHC” value in the data set on C2C12 myoblasts [4] (C2C12, MyHC staining, FIG. 6B) is “decreased”. Besides, in the data set on C2C12 myoblasts [4] (overexpression in myoblasts, FIG. 6), the fusion between cells result is “completely inhibits”. Besides, the “molecular association of IRS-1 with PI3K after IGF-I stimulation” value with IRS-1 with PI3K is reported as “weakened”. The IRS-1 ubiquitination entry in the data set with IRS-1 [5] is recorded as “increased”. The “tyrosine phosphorylation of IRS-1” value with IRS-1 [6] was “decreased”. In addition, in the data set with C2C12 myoblasts [7], the muscle differentiation result was “inhibited”. In the data set on AKT, the “IGF-1-induced AKT phosphorylation” value is recorded as “inhibited”. In addition, the “IGF-1-induced PI3K activation” value in the data set with PI3K was “abrogated”. The “tyrosine phosphorylation of IGFR induced by IGF-I” value in the data set on IGFR is reported as “not changed”. In addition, the “IGF-1-induced ERK1/2 phosphorylation” value in the data set with ERK1/2 is “not changed”.

B2: C14A TRIM72: TRIM72 mutant protein in which the 14th amino acid is substituted from cystine to alanine (protein, listed as Mus musculus)
chain: MSAAPGLLRQELSAPLCLQLFDAPVTAECGHSFCRACLIRVAGEPAADGTVACPCCQAPTRPQALSTNLQLSRLVEGLAQVPQGHCEEHLDPLSIYCEQDRTLVCGVCASLGSHRGHRLLPAAEAQARLKTQLPQQKMQLQEACMRKEKTVAVLEHQLVEVEETVRQFRGAVGEQLGKMRMFLAALESSLDREAERVRGDAGVALRRELSSLNSYLEQLRQMEKVLEEVADKPQTEFLMKFCLVTSRLQKILSESPPPARLDIQLPVISDDFKFQVWKKMFRALMPALEELTFDPSSAHPSLVVSSSGRRVECSDQKAPPAGEDTRQFDKAVAVVAQQLLSQGEHYWEVEVGDKPRWALGVMAADASRRGRLHAVPSQGLWLLGLRDGKILEAHVEAKEPRALRTPERPPARIGLYLSFADGVLAFYDASNPDVLTPIFSFHERLPGPVYPIFDVCWHDKGKNAQPLLLVGPEQEQA
modifications: or SEQ ID NO 2
notes: TRIM72 mutant protein in which the 14th amino acid is substituted from cystine to alanine
With B2, the IRS-1 ubiquitination result with IRS-1 [5] is recorded as “completely inhibited”. In the data set with C2C12 myoblasts [7], the muscle differentiation entry is “enhanced”.
